Results reported in patent publication US20240117018A1.

Legend:
Test in all cases: cell-based or functional assay
[1] = target: HIV-1 Env of pseudovirus BF1266.431a (HIV-1)
[2] = target: HIV-1 Env of pseudovirus BJOX010000.06.2 (HIV-1)
[3] = target: HIV-1 Env of pseudovirus ZM109F.PB4 (HIV-1)
[4] = target: HIV-1 Env of pseudovirus C1080.c03 (HIV-1)
[5] = target: HIV-1 Env of pseudovirus Q769.d22 (HIV-1)
[6] = target: HIV-1 Env of pseudovirus X1632_S2_B10 (HIV-1)
[7] = target: HIV-1 Env of pseudovirus Ce2060_G9 (HIV-1)
[8] = target: HIV-1 Env of pseudovirus Ce1176_A3 (HIV-1)
[9] = target: HIV-1 Env of pseudovirus ZM53M.PB12 (HIV-1)
[10] = target: HIV-1 Env of pseudovirus ZM135M.PL10a (HIV-1)
[11] = target: HIV-1 Env of pseudovirus T251-18 (HIV-1)
[12] = target: HIV-1 Env of pseudovirus 1394C9G1(Rev-) (HIV-1)
[13] = target: HIV-1 Env of pseudovirus CNE58 (HIV-1)
[14] = target: HIV-1 Env of pseudovirus 3817.v2.c59 (HIV-1)
[15] = target: HIV-1 Env of pseudovirus Ce1086_B2 (HIV-1)
[16] = target: HIV-1 Env of pseudovirus 89-F1_2_25 (HIV-1)
[17] = target: HIV-1 Env of pseudovirus Q259.d2.17 (HIV-1)
[18] = target: HIV-1 Env of pseudovirus ZM247v1(Rev-) (HIV-1)
[19] = target: HIV-1 Env of pseudovirus 7030102001E5(Rev-) (HIV-1)
[20] = target: HIV-1 Env of pseudovirus X2088_c9 (HIV-1)
[21] = target: HIV-1 Env of pseudovirus CNE19 (HIV-1)
[22] = target: HIV-1 Env of pseudovirus MS208.A1 (HIV-1)
[23] = target: HIV-1 Env of pseudovirus 249M B10 (HIV-1)
[24] = target: HIV-1 Env of pseudovirus 6811.v7.c18 (HIV-1)
[25] = target: HIV-1 Env of pseudovirus WEAU_d15_410_787 (HIV-1)
[26] = target: HIV-1 Env of pseudovirus Q23.17 (HIV-1)
[27] = target: HIV-1 Env of pseudovirus CNE21 (HIV-1)
[28] = target: HIV-1 Env of pseudovirus HIV-16055-2.3 (HIV-1)
[29] = target: HIV-1 Env of pseudovirus SC422661.8 (HIV-1)
[30] = target: HIV-1 Env of pseudovirus 62357_14_D3_4589 (HIV-1)
[31] = target: HIV-1 Env of pseudovirus X1193_c1 (HIV-1)
[32] = target: HIV-1 Env of pseudovirus AC10.0.29 (HIV-1)
[33] = target: HIV-1 Env of pseudovirus TRO.11 (HIV-1)
[34] = target: HIV-1 Env of pseudovirus HIV-0013095-2.11 (HIV-1)
[35] = target: HIV-1 Env of pseudovirus CNE17 (HIV-1)
[36] = target: HIV-1 Env of pseudovirus CAAN5342.A2 (HIV-1)
[37] = target: HIV-1 Env of pseudovirus Q461.e2 (HIV-1)

## N49P7 (antibody)
[1]
  IC50: 0.057 µg/mL
  IC80: 0.199 µg/mL
  MPI: 100
[2]
  IC50: 0.085 µg/mL
  IC80: 0.592 µg/mL
  MPI: 100
[3]
  IC50: 0.034 µg/mL
  IC80: 0.153 µg/mL
  MPI: 100
[4]
  IC50: 0.114 µg/mL
  IC80: 0.765 µg/mL
  MPI: 100
[5]
  IC50: 0.025 µg/mL
  IC80: 0.111 µg/mL
  MPI: 100
[6]
  IC50 (neutralisation, TZM.bl cells): 12 µg/mL
  IC80 (neutralisation, TZM.bl cells): 40.4 µg/mL
  MPI: 85
[7]
  IC50: 0.661 µg/mL
  IC80: 2.55 µg/mL
  MPI: 100
[8]
  IC50: 0.204 µg/mL
  IC80: 0.589 µg/mL
  MPI: 100
[9]
  IC50: 0.251 µg/mL
  IC80: 0.8 µg/mL
  MPI: 100
[10]
  IC50: 0.2 µg/mL
  IC80: 0.96 µg/mL
  MPI: 100
[11]
  IC50: 0.178 µg/mL
  IC80: 0.62 µg/mL
  MPI: 100
[12]
  IC50: 3.84 µg/mL
  IC80: 21.1 µg/mL
  MPI: 94
[13]
  IC50: 0.029 µg/mL
  IC80: 0.067 µg/mL
  MPI: 100
[14]
  IC50 (neutralisation, TZM.bl cells): 0.716 µg/mL
  IC80 (neutralisation, TZM.bl cells): 3.73 µg/mL
  MPI: 99
[15]
  IC50: 0.089 µg/mL
  IC80: 0.568 µg/mL
  MPI: 100
[16]
  IC50 (neutralisation, TZM.bl cells): 21.6 µg/mL
  IC80 (neutralisation, TZM.bl cells): > 50 µg/mL
  MPI: 80
[17]
  IC50: 0.332 µg/mL
  IC80: 2.47 µg/mL
  MPI: 98
[18]
  IC50: 0.062 µg/mL
  IC80: 0.214 µg/mL
  MPI: 100
[19]
  IC50: 0.184 µg/mL
  IC80: 0.832 µg/mL
  MPI: 100
[20]
  IC50: 0.116 µg/mL
  IC80: 0.338 µg/mL
  MPI: 100
[21]
  IC50: 9 ng/mL
  IC80: 0.041 µg/mL
  MPI: 100
[22]
  IC50: 0.12 µg/mL
  IC80: 0.479 µg/mL
  MPI: 100
[23]
  IC50: 0.081 µg/mL
  IC80: 0.377 µg/mL
  MPI: 100
[24]
  IC50 (neutralisation, TZM.bl cells): 0.229 µg/mL
  IC80 (neutralisation, TZM.bl cells): 0.992 µg/mL
  MPI: 100
[25]
  IC50: 0.045 µg/mL
  IC80: 0.117 µg/mL
  MPI: 100
[26]
  IC50: 0.052 µg/mL
  IC80: 0.21 µg/mL
  MPI: 100
[27]
  IC50: 0.756 µg/mL
  IC80: 6.02 µg/mL
  MPI: 97
[28]
  IC50: 0.057 µg/mL
  IC80: 0.28 µg/mL
  MPI: 100
[29]
  IC50: 0.114 µg/mL
  IC80: 0.32 µg/mL
  MPI: 100
[30]
  IC50: 0.025 µg/mL
  IC80: 0.102 µg/mL
  MPI: 100
[31]
  IC50: 0.016 µg/mL
  IC80: 0.06 µg/mL
  MPI: 100
[32]
  IC50: 5.03 µg/mL
  IC80: 36.7 µg/mL
  MPI: 89
[33]
  IC50: 0.044 µg/mL
  IC80: 0.16 µg/mL
  MPI: 100
[34]
  IC50: 0.073 µg/mL
  IC80: 0.253 µg/mL
  MPI: 100
[35]
  IC50: 0.126 µg/mL
  IC80: 0.46 µg/mL
  MPI: 100
[36]
  IC50: 0.409 µg/mL
  IC80: 1.21 µg/mL
  MPI: 100
[37]
  IC50: 0.261 µg/mL
  IC80: 0.922 µg/mL
  MPI: 100
